The test addresses Neurofibromin (NF1), full length, isoform 1 (human) (UniProt P21359). Kind of test: AUC.

As a reminder, the stoichiometry N is the number of molecules, sites or subunits per partner or assembly.

For “Neurofibromin (NF1), full length, isoform 1, P21359-2 1-2818”, the stoichiometry N stood at 2.
